Measured values: PMC5462797, “A protein-protein interaction dictates Borrelial infectivity” (Scientific Reports, 2017)

B1: BB0323 (residues 22–242) (domain or fragment)
chain: KTPPESRESKNAKIAQPDNKNFQLRDIKDIKNELIRERGHLFYSKEFNEAERLEEAMKQSFSKKKAIEGNEIALKVLERYKTIIRETREKKEKTNYLKENIEKYLNDAEANEAYIWIPLEIDEVNNLYFEATRKYKNYDLDNALDMYSKAFNRAQQAAKNAKEAKALKETDERMYKQLKALEAASNLPIYSNNKLIKPSPWNGRAFIKERNSHLNLLNTNK
notes: BB0323 of Borrelia burgdorferi, residues 22-242; also called BB0323 N2; BB0323^22-242
B2: BB0238 (purified recombinant, wild type) (natural protein)
chain: QGSSSYIDKQKELAIFYYEVGQRYINVGKIKKGKLFQAKALKIYPDLKKGFDIKLAVKELDARIKDDNPKVVMLEDIKLEEIPGIVHEKIEINDFTNAPKIEYIAQRERSKNQDKIIKFQFGKFARALISRNFDLFDSVIADKVNVMGQFESKNDFISTLSSASSKADADELEYLSVDDYYDLKSLKISKSNDTSFAVNVNAKKNDVTKNFPFWKERQTLIFTTEDDNNWFLSSIN
notes: BB0238 of Borrelia burgdorferi; monomer-dimer mixture in solution; also called BB0238 WT; intact BB0238

Columns and labels:
[1] = biological target: the molecule itself; assay: SEC; analytical SEC of single proteins on Superdex 75 (10/300), 50 mM Tris-HCl pH 8.0, 0.15 M NaCl, 0.5 mM EDTA, 4 °C; BB0238 9-44 uM, BB0238^∆IM 10-40 uM, BB0323 (22-242) 8 uM; monomer-dimer
BB0323 (residues 22–242) = biological target: B1; assay: SEC; analytical SEC of ~1:1 mixtures: 10 uM BB0238-BB0323 on Superdex 200; ~9 uM BB0238^∆IM with 8 uM BB0323 22-242 on Superdex 75; 50 mM Tris-HCl pH 8.0, 0.15 M NaCl, 0.5 mM EDTA, 4 °C; conditions: both partners purified

| Binder | stoichiometry N [1] | stoichiometry N (BB0323 (residues 22–242)) |
| --- | --- | --- |
| B1 | 2 |  |
| B2 | 2 | 1 |
